Data from patent US20180064809A1 (University of Texas, published 2018).

B1: 3D5 mouse anti-human DC-HIL mAb (antibody, IgG1, V domains shown)
VH: QVQLQQSGAELVKPGTSVKLSCKASGYTFTNYYMYWVKQRPGQGLEWIGEINTRNGGNRFNEKFKNKAILTVDKSSNTAYIQVSSLTSEDSAVYYCTTGFAYWGQGTLVTVSA
VL: QIVLTQSPAIMSASLGEEITLTCSASSSISYMHWYQQKSGTSPKLLIYTTSTLSSGVPSRFSGSGSGTFYSLTISSVEAEDAADYYCHQSSSYPYTFGGGTKLEIKR

What was measured:
[1] = target: syndecan-4 (SD-4) on mouse T cells (mouse) (UniProt O35988); assay: cell-based or functional assay
Human DC-HIL = target: T1, Human DC-HIL (human, UniProt Q14956 23-572); assay: cell-based or functional assay
T1 sequence (looked up): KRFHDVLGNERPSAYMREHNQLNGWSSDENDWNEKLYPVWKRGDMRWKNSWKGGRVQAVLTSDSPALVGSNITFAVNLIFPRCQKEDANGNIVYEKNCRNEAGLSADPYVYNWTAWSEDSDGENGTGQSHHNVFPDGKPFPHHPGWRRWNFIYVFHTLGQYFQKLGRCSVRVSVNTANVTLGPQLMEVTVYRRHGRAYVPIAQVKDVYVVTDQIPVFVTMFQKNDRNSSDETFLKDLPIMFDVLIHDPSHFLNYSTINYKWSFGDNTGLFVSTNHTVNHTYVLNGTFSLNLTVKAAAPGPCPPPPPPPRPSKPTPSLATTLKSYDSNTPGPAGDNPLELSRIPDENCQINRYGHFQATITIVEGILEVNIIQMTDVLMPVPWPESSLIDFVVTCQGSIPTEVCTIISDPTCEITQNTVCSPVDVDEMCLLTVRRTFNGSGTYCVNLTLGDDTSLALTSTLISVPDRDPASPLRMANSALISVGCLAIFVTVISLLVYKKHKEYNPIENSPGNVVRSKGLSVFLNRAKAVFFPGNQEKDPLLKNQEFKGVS

Sequence of syndecan-4 (SD-4) on mouse T cells (mouse) (O35988 24-198): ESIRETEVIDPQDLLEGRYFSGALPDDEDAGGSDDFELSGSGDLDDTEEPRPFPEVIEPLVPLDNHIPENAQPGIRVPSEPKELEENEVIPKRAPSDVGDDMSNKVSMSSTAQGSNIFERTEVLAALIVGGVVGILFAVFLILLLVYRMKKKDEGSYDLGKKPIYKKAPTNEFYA

| Molecule | restoration of pmel-1 T cell activation suppressed by melanoma-MDSC [1] [%] | T cell IFN-γ response against control IgG-treated cultures, kidney cancer (Human DC-HIL) |
| --- | --- | --- |
| DC-HIL-Fc fusion protein (from UniProt Q99P91 23-502) | < 90 | – |
| B1 | – | 20 fold greater than control IgG-treated cultures |
